In patent US7642046B2, “Method for monitoring recruitment of proteins to the intracellular domain of a receptor in intact cells” (priority 2001, dated 2010):

B1: TRAF5: TRAF5 adaptor protein, expressed as tagged deletion mutant, amino acids 145 to 557 (protein, UniProt O00463 145-557, looked up, fragment)
chain: REPVLRKDLKEHLSASCQFRKEKCLYCKKDVVVINLQNHEENLCPEYPVFCPNNCAKIILKTEVDEHLAVCPEAEQDCPFKHYGCAVTDKRRNLQQHEHSALREHMRLVLEKNVQLEEQISDLHKSLEQKESKIQQLAETIKKLEKEFKQFAQLFGKNGSFLPNIQVFASHIDKSAWLEAQVHQLLQMVNQQQNKFDLRPLMEAVDTVKQKITLLENNDQRLAVLEEETNKHDTHINIHKAQLSKNEERFKLLEGTCYNGKLIWKVTDYKMKKREAVDGHTVSIFSQSFYTSRCGYRLCARAYLNGDGSGRGSHLSLYFVVMRGEFDSLLQWPFRQRVTLMLLDQSGKKNIMETFKPDPNSSSFKRPDGEMNIASGCPRFVAHSVLENAKNAYIKDDTLFLKVAVDLTDLEDL
modifications: His tag
B2: NIK: kinase, a downstream mediator in the NF-κB pathway, recruited to CD40 via TRAF2 (protein, UniProt Q99558 1-947, looked up)
Mitogen-activated protein …: MAVMEMACPGAPGSAVGQQKELPKAKEKTPPLGKKQSSVYKLEAVEKSPVFCGKWEILNDVITKGTAKEGSEAGPAAISIIAQAECENSQEFSPTFSERIFIAGSKQYSQSESLDQIPNNVAHATEGKMARVCWKGKRRSKARKKRKKKSSKSLAHAGVALAKPLPRTPEQESCTIPVQEDESPLGAPYVRNTPQFTKPLKEPGLGQLCFKQLGEGLRPALPRSELHKLISPLQCLNHVWKLHHPQDGGPLPLPTHPFPYSRLPHPFPFHPLQPWKPHPLESFLGKLACVDSQKPLPDPHLSKLACVDSPKPLPGPHLEPSCLSRGAHEKFSVEEYLVHALQGSVSSGQAHSLTSLAKTWAARGSRSREPSPKTEDNEGVLLTEKLKPVDYEYREEVHWATHQLRLGRGSFGEVHRMEDKQTGFQCAVKKVRLEVFRAEELMACAGLTSPRIVPLYGAVREGPWVNIFMELLEGGSLGQLVKEQGCLPEDRALYYLGQALEGLEYLHSRRILHGDVKADNVLLSSDGSHAALCDFGHAVCLQPDGLGKSLLTGDYIPGTETHMAPEVVLGRSCDAKVDVWSSCCMMLHMLNGCHPWTQFFRGPLCLKIASEPPPVREIPPSCAPLTAQAIQEGLRKEPIHRVSAAELGGKVNRALQQVGGLKSPWRGEYKEPRHPPPNQANYHQTLHAQPRELSPRAPGPRPAEETTGRAPKLQPPLPPEPPEPNKSPPLTLSKEESGMWEPLPLSSLEPAPARNPSSPERKATVPEQELQQLEIELFLNSLSQPFSLEEQEQILSCLSIDSLSLSDDSEKNPSKASQSSRDTLSSGVHSWSSQAEARSSSWNMVLARGRPTDTPSYFNGVKVQIQSLNGEHLHIREFHRVKVGDIATGISSQIPAAAFSLVTKDGQPVRYDMEVPDSGIDLQCTLAPDGSFAWSWRVKHGQLENRP
B3: TRAF3: TNF receptor associated factor 3, adaptor protein expressed from pcDNA3 (protein, UniProt Q13114 1-568, looked up)
chain: MESSKKMDSPGALQTNPPLKLHTDRSAGTPVFVPEQGGYKEKFVKTVEDKYKCEKCHLVLCSPKQTECGHRFCESCMAALLSSSSPKCTACQESIVKDKVFKDNCCKREILALQIYCRNESRGCAEQLMLGHLLVHLKNDCHFEELPCVRPDCKEKVLRKDLRDHVEKACKYREATCSHCKSQVPMIALQKHEDTDCPCVVVSCPHKCSVQTLLRSELSAHLSECVNAPSTCSFKRYGCVFQGTNQQIKAHEASSAVQHVNLLKEWSNSLEKKVSLLQNESVEKNKSIQSLHNQICSFEIEIERQKEMLRNNESKILHLQRVIDSQAEKLKELDKEIRPFRQNWEEADSMKSSVESLQNRVTELESVDKSAGQVARNTGLLESQLSRHDQMLSVHDIRLADMDLRFQVLETASYNGVLIWKIRDYKRRKQEAVMGKTLSLYSQPFYTGYFGYKMCARVYLNGDGMGKGTHLSLFFVIMRGEYDALLPWPFKQKVTLMLMDQGSSRRHLGDAFKPDPNSSSFKKPTGEMNIASGCPVFVAQTVLENGTYIKDDTIFIKVIVDTSDLPDP
modifications: full-length
notes: TNF receptor associated factor 3, adaptor protein expressed from pcDNA3

Tests used:
Type in all cases: cell-based
[1] = target: T1, CD40 mutants (Homo sapiens, UniProt P25942, E235A); test: Recruitment assay in intact cells with CD40 mutants (deletions or point mutations in TRAF binding sites); conditions: E235A, relative to wild type CD40
T1 construct: expressed in transfected cells; host or cells: 293T
T1 sequence (P25942 21-277 E235A): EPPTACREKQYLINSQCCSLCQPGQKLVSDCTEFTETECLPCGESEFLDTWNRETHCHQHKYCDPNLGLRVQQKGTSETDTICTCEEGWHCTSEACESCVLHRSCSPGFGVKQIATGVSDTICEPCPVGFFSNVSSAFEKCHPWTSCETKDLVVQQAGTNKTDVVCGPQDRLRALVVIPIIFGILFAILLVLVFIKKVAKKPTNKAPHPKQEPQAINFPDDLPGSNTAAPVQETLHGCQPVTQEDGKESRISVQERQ
Experimental: The lysates were cleared by centrifugation at 15000 G at 4° C. in a micro-centrifuge, 3 fold serially diluted (with lysis buffer containing 1% bovine serum albumin) and then every diluted sample incubated for 2 hours at room temperature (or overnight) in wells of ELISA microtiter plates coated with a mAb (Ro1) specific to the CD40 extra-cellular domain (Schwabe et al. 1997). For control purposes, instead of the wild type CD40 plasmid, a plasmid encoding a CD40 mutant lacking the entire signaling domain was used for transfection and transient expression (CD401-222, FIG. 1B). Following incubation exhaustive washes were carried out on the microtiter plates to remove any unbound protein [about 10 washing steps with PBS containing 0.05% Tween 20) PBS/Tween)]. To detect bound TRAF1, anti TRAF1 specific antibodies were loaded into the plates, incubated for about 3 hours at room temperature, […] by extensive washes to remove unbound antibody and detecting the bound antibody with an HRP conjugated secondary antibody. All antibodies (except when used as solid phase antibody) were diluted in PBS/Tween containing 1% BSA.
(§1) The recruitment of TRAF to CD40 can be quantitatively measured using the assay described in example 1. For that purpose, the assay conditions were adjusted in such a way that TRAF expression was in significant excess over the expression of CD40. This was the case when the TRAF expression plasmid was used at a two to three fold excess over the CD40 expression plasmid. The CD40 bound TRAF concentration was measured as described in example 1. A reference extract containing CD40/TRAF complexes served as a standard in each assay. This standard extract consisted of a large pool extract from cells that had been co-transfected with the plasmids encoding CD40/TRAF1, CD40/TRAF2, CD40/TRAF3, CD40/TRAF5 and CD40/TRAF6. The extracts were tested for the presence of CD40/TRAF complexes and the complex concentrations in each extract were arbitrarily defined as 1000 U/ml. The extracts were frozen in small aliquots and kept at −80° C. until further use. By comparing unknown samples to these extracts, it was possible to determine the relative CD40-TRAF complex concentrations in arbitrary units. The necessary normalization for sample-to-sample variations in the CD40 expression was calculated with the following formula: […]
The quantitative version of the TRAF recruitment assay as described in example 3 was used to compare CD40 and various CD40 mutants with respect to their TRAF recruitment behaviour. TRAF 1, 2, 3, 5 and 6 were examined. […] Additional deletion of the TRAF1/2/3/5 binding motif PXQXT254 at amino acid position 250 to 254 reduced the binding of all 5 TRAFs test to background levels (1-254EA in FIG. 3B). […]

[2] = target: T2, LTβR (Homo sapiens, UniProt P25942+P36941); test: Recruitment assay with hybrid receptor (CD40 extracellular domain, LTβR transmembrane and intracellular domain); conditions: 293T cells
T2 construct: cDNA fragments encoding for the transmembrane and cytoplasmic domains of the LTβR, TACI, the p75TNF receptor, CD27; expressed in transfected cells; host or cells: 293T
T2 sequence (P25942+P36941 fused): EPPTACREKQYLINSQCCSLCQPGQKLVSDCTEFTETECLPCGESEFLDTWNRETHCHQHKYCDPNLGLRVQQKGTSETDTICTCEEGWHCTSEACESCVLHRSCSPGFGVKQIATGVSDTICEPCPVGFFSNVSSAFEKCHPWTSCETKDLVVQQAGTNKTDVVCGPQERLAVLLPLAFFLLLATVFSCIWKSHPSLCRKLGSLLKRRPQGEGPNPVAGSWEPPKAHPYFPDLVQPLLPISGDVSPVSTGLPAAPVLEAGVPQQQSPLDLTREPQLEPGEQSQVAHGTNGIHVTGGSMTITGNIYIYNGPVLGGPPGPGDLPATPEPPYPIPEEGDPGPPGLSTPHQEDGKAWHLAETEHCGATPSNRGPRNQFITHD
Experimental: as §1
Recruitment of various TRAFs to receptors different to CD40, was tested by the recruitment assay described in example 1 by transforming cells with expression plasmids encoding hybrids receptors comprising the extracellular domain of CD40 and transmembrane and intracellular domain of anyone of the following receptors: BCMA (Madry et al. 1998 and Hatzoglou et al. 2000) the LTβR-receptor (Mosialos et al. 1995, Crowe et al. 1994, Nakano et al. 1996), TACI (von Bulow et al. 1997, Xia et al. 2000) the p75TNFR (Rothe et al. 1994) and the CD27 (Gravestein et al. 1998, Akiba et al. 1998) (for details of constructs see example 7). Measurement of TRAF recruitment to the signalling domains of BCMA the LTβR-receptor TACI the p75TNFR or the CD27 was carried out by co-transfecting 293T cells with a plasmid encoding anyone of the above hybrid receptors together with a plasmid encoding TRAF and measurement of the TRAF/Receptor complex using the ELISA sandwich described in example 1 and the quantitation as described in example 3. The assay with the hybrid receptors is schematically represented in FIG. 4A. The results shown in FIG. 4B indicate that, using the assay monitoring recruitment in intact cells, any TRAF recruiting receptor of the TNF/NGF family can be examined with the same antibody sandwich assay described in example 1 and the amount of TRAF-receptor/CD40 hybrid complex can be monitored as described in example 3. […] Recruitment of TRAF3 to all the receptors tested is similar. […]

[3] = target: T3, CD40 (Homo sapiens, UniProt P25942); test: Recruitment of NIK to CD40 via TRAF2 in 293T cells, anti-CD40 capture ELISA with anti NIK detection
T3 construct: expressed in transfected cells; host or cells: HEK 293T
T3 sequence (P25942 21-277): as the sequence (P25942 21-277 E235A) above, with A215E counted along it
Source text: The assay described in example 1 can be used to measure recruitment of signal proteins, e.g. NIK (a downstream mediator in the NF-κB pathway Malinin et al. 1997) to a cytokine receptor, e.g. CD40 via an adaptor protein e.g. TRAF2. Expression plasmids encoding CD40, TRAF2, NIK (in pcDNA3.1) and myc-tagged IKKα were co-transfected into 293T (at a ratio of 1:1.75:1.75:1.75 respectively). Empty vector was used to equalize the amount of transfected DNA. The transfection was done as described for example 1. Twenty seven hours later the cells were extracted as described in example 1. The lysates were incubated with ELISA plates coated with an anti CD40 mAb (R01, Schwabe et al. 1997). After two hours the plates were washed with PBS/tween and developed with a commercially available rabbit anti NIK antibody (Santa Cruz at 1:100 dilution, SC-6363) and HRP-labeled goat anti rabbit Ig antibody (Pharmingen). The recruitment assay for NIK is schematically represented in FIG. 5A.

[4] = target: T4, BCMA (Homo sapiens, UniProt P25942+Q02223); test: Recruitment assay with hybrid receptor (CD40 extracellular domain, BCMA transmembrane and intracellular domain); conditions: 293T cells
T4 construct: transmembrane and intracellular domain of anyone of the following receptors: BCMA; expressed in transfected cells; host or cells: 293T
T4 sequence (P25942+Q02223 fused, species assumed): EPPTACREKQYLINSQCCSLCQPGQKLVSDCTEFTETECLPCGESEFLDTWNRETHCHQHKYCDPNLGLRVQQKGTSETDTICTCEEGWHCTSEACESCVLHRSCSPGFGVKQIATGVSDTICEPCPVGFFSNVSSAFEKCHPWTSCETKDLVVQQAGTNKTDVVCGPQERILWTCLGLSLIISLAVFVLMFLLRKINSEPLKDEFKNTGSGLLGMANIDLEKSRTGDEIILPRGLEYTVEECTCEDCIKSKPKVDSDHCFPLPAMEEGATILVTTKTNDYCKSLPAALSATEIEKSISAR
Experimental: as §1

[5] = target: T5, TACI (Homo sapiens, UniProt O14836+P25942); test: Recruitment assay with hybrid receptor (CD40 extracellular domain, TACI transmembrane and intracellular domain); conditions: 293T cells
T5 construct: cDNA fragments encoding for the transmembrane and cytoplasmic domains of the LTβR, TACI, the p75TNF receptor, CD27; expressed in transfected cells; host or cells: 293T
T5 sequence (P25942+O14836 fused, species assumed): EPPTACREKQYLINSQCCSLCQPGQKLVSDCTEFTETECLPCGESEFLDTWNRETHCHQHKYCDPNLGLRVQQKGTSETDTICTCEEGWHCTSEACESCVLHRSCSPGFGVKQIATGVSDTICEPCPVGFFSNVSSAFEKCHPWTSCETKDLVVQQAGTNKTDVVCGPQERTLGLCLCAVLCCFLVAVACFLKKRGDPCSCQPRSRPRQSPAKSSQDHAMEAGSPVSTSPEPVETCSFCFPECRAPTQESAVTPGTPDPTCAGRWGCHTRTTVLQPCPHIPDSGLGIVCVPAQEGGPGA
Experimental: as §1

[6] = target: T6, p75TNFR (Homo sapiens, UniProt P20333+P25942); test: Recruitment assay with hybrid receptor (CD40 extracellular domain, p75TNFR transmembrane and intracellular domain); conditions: 293T cells
T6 construct: cDNA fragments encoding for the transmembrane and cytoplasmic domains of the LTβR, TACI, the p75TNF receptor, CD27; expressed in transfected cells; host or cells: 293T
T6 sequence (P25942+P20333 fused): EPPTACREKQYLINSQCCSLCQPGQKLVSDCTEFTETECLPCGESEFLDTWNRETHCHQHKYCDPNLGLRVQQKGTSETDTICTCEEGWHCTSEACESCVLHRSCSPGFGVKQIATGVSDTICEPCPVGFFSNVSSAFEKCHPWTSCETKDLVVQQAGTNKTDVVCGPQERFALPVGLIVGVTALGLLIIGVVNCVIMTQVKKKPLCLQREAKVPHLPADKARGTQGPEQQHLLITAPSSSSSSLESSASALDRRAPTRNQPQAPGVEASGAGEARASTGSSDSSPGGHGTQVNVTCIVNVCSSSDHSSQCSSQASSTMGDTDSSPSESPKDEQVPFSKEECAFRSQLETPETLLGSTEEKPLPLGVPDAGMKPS
Experimental: as §1, with “By comparing unknown samples to these extracts, it was possible to determine the relative CD40-TRAF complex concentrations in arbitrary units.” left out
Recruitment of various TRAFs to receptors different to CD40, was tested by the recruitment assay described in example 1 by transforming cells with expression plasmids encoding hybrids receptors comprising the extracellular domain of CD40 and transmembrane and intracellular domain of anyone of the following receptors: BCMA (Madry et al. 1998 and Hatzoglou et al. 2000) the LTβR-receptor (Mosialos et al. 1995, Crowe et al. 1994, Nakano et al. 1996), TACI (von Bulow et al. 1997, Xia et al. 2000) the p75TNFR (Rothe et al. 1994) and the CD27 (Gravestein et al. 1998, Akiba et al. 1998) (for details of constructs see example 7). Measurement of TRAF recruitment to the signalling domains of BCMA the LTβR-receptor TACI the p75TNFR or the CD27 was carried out by co-transfecting 293T cells with a plasmid encoding anyone of the above hybrid receptors together with a plasmid encoding TRAF and measurement of the TRAF/Receptor complex using the ELISA sandwich described in example 1 and the quantitation as described in example 3. […]

[7] = target: T7, CD27 (Homo sapiens, UniProt P25942+P26842); test: Recruitment assay with hybrid receptor (CD40 extracellular domain, CD27 transmembrane and intracellular domain); conditions: 293T cells
T7 construct: cDNA fragments encoding for the transmembrane and cytoplasmic domains of the LTβR, TACI, the p75TNF receptor, CD27; expressed in transfected cells; host or cells: 293T
T7 sequence (P25942+P26842 fused, species assumed): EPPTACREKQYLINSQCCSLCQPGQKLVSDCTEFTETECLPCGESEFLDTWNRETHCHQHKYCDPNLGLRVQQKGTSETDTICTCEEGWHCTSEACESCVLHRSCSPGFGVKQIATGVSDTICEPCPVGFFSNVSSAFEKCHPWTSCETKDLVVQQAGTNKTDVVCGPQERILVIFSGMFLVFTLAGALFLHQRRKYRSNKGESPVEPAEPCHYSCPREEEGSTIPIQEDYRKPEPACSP
Experimental: as §1

recruitment to CD40 mutant E235A [1] | recruitment to LTβR, folds higher than recruitment to CD40 ([2]; CD40 as relative standard) | recruitment of NIK to CD40 when IKK was co-expressed ([3]; myc-tagged IKKα co-transfected) | recruitment of NIK to CD40, dependence on adaptor ([3]; with or without TRAF2 co-transfection) | recruitment to BCMA compared with the other receptors tested [4] | recruitment to TACI compared with the other receptors tested [5] | recruitment to p75TNFR compared with the other receptors tested [6] | recruitment to LTβR compared with the other receptors tested [2] | recruitment to CD27 compared with the other receptors tested [7] | Molecule
reduced recruitment | about 152 fold |  |  |  |  |  |  |  | B1
 |  | clearly improved | TRAF2 dependent |  |  |  |  |  | B2
reduced recruitment |  |  |  | similar | similar | similar | similar | similar | B3
